# According to patent publication US20230330257A1 (BEIJING TIANNUOJIANCHENG PHARMA TECH, published 2023):
# T1: recombinant human CD3εγ-Fc heterodimer (human)
# T1 construct: Extracellular regions of CD3γ and CD3ε as Fc hole/knob heterodimer; also called human CD3εγ protein; recombinant human CD3γ/ε antigen
# T1 chain 1: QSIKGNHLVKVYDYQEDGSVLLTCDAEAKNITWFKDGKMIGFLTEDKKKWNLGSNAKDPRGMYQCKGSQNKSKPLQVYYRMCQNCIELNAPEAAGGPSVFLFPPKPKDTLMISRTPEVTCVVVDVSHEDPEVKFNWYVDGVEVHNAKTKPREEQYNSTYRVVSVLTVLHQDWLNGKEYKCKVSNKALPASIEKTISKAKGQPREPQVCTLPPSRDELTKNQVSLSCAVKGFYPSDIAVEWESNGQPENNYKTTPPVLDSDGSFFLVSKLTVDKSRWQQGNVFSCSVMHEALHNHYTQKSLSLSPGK
# T1 chain 2: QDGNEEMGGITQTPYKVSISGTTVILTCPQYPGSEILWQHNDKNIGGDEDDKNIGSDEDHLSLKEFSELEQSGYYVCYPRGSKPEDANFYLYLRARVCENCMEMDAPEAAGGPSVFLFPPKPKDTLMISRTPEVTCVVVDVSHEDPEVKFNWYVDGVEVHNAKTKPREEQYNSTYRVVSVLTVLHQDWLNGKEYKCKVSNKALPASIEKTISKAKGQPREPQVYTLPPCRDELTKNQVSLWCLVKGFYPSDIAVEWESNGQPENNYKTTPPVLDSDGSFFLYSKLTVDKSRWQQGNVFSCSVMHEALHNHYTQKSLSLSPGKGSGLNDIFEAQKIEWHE
# T2: human CD20 (human, UniProt P11836 1-297)
# T2 construct: whole, on cells; also called CD20 receptor; CHO-human CD20 (clone 3G6)
# T2 sequence (looked up): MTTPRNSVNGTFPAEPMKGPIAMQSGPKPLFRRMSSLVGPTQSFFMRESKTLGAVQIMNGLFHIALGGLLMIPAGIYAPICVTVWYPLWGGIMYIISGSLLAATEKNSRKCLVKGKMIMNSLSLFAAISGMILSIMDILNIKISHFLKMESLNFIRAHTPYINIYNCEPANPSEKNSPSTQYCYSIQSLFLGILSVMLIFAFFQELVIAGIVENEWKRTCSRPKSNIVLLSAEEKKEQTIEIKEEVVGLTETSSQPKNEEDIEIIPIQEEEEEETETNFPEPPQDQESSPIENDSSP
# Key:
# [1] = target: T1, recombinant human CD3εγ-Fc heterodimer; assay: ELISA, human CD3εγ protein coated on the plate, HRP goat anti-human IgG Fc, A450
# Procedure: Human CD3εγ protein was coated onto a plate and placed at 4° C. overnight.
# human CD20 [2] = target: T2, human CD20; assay: flow cytometry on Raji cells, Alexa Fluor 647 goat anti-human IgG Fc
# Procedure: (§1) A lymphoma cell line Raji and Daudi cells in the logarithmic growth phase were taken, 200 μg/mL mouse IgG (Jackson ImmunoResearch) was added, and the mixture was blocked for 30 min. 5×10⁴ cells and 50 μL, of gradient-diluted antibody (the initial concentration of 200 nM, 5-fold dilution, a total of 8 gradients) were added to each well of a 96-well U-shaped plate, and incubated on ice for 45 min. After the cells were washed, 50 μL, of Alexa Fluro647-labelled goat anti-human IgG Fc (1: 300 dilution) was added to each well, and the mixture was incubated on ice for 45 min. 60 μL, of PI (Sigma, P4170) was added to each well, and the mixture was incubated for 5 min and detected by using a flow cytometer (iQue Screener).
# human CD20 [3] = target: T2, human CD20; assay: flow cytometry on Daudi cells, Alexa Fluor 647 goat anti-human IgG Fc
# Procedure: as §1
binder,measurement,setting,value
"aCD3-hVH9/VL2 (antibody, human IgG4, V domains shown, Expressed with an antibody lambda light chain constant region and human IgG4 heavy chain constant regions CH1-CH3; also called humanized anti-CD3 antibody hVH9/VL2) VH: EVQLVESGGGLVQPGGSLRLSCAASGFTFNTYAMNWVRKAPGKGLEWVGRIRSKYNNYATYYADSVKDRFTISRDDSKNSLYLQMNSLKTEDTAVYYCVRHGNFGNSYVSWFAYWGQGTLVTVSS VL: QAVVTQEPSLTVSPGGTVTLTCRSSTGAVTTSNYANWVQEKPGQAPRGLIGGTNKRAPWTPARFSGSLLGGKAALTLSGAQPEDEAEYYCALWYSNLWVFGGGTKLTVL",EC50 (read off the curve),[1],~0.6 nM
"aCD3-hVH1/VL5 (antibody, human IgG4, V domains shown, Expressed with an antibody lambda light chain constant region and human IgG4 heavy chain constant regions CH1-CH3; also called humanized anti-CD3 antibody hVH1/VL5) VH: EVQLVESGGGLVQPGGSLRLSCAASGFTFNTYAMNWVRQAPGKGLEWVSRIRSKYNNYATYYADSVKDRFTISRDDSKNTLYLQMNSLKTEDTAVYYCVRHGNFGNSYVSWFAYWGQGTLVTVSS VL: QAVVTQEPSLTVSPGGTVTLTCRSSTGAVTTSNYANWVQEKPGQAPRGLIGGTNKRAPWTPARFSGSLLGGKAALTITGAQAEDEAEYYCVLWYSNLWVFGGGTKLTVL",EC50 (read off the curve),[1],~0.6 nM
"aCD3-hVH8/VL1 (antibody, human IgG4, V domains shown, Expressed with an antibody lambda light chain constant region and human IgG4 heavy chain constant regions CH1-CH3; also called humanized anti-CD3 antibody hVH8/VL1) VH: EVQLVESGGGLVQPGGSLRLSCAASGFTFNTYAMNWVRKAPGKGLEWVGRIRSKYNNYATYYADSVKDRFTISRDDSKNSLYLQMNSLKTEDTAVYYCARHGNFGNSYVSWFAYWGQGTLVTVSS VL: QAVVTQEPSLTVSPGGTVTLTCRSSTGAVTTSNYANWVQQKPGQAPRGLIGGTNKRAPWTPARFSGSLLGGKAALTLSGAQPEDEAEYYCALWYSNLWVFGGGTKLTVL",EC50 (read off the curve),[1],~0.6 nM
"aCD3-hVH8/VL5 (antibody, human IgG4, V domains shown, Expressed with an antibody lambda light chain constant region and human IgG4 heavy chain constant regions CH1-CH3; also called aCD3-hVH8/VLS (so in the source)) VH: EVQLVESGGGLVQPGGSLRLSCAASGFTFNTYAMNWVRKAPGKGLEWVGRIRSKYNNYATYYADSVKDRFTISRDDSKNSLYLQMNSLKTEDTAVYYCARHGNFGNSYVSWFAYWGQGTLVTVSS VL: QAVVTQEPSLTVSPGGTVTLTCRSSTGAVTTSNYANWVQEKPGQAPRGLIGGTNKRAPWTPARFSGSLLGGKAALTITGAQAEDEAEYYCVLWYSNLWVFGGGTKLTVL",EC50 (read off the curve),[1],~0.6 nM
"aCD3-hVH9/VL1 (antibody, human IgG4, V domains shown, Expressed with an antibody lambda light chain constant region and human IgG4 heavy chain constant regions CH1-CH3; also called humanized anti-CD3 antibody hVH9/VL1) VH: EVQLVESGGGLVQPGGSLRLSCAASGFTFNTYAMNWVRKAPGKGLEWVGRIRSKYNNYATYYADSVKDRFTISRDDSKNSLYLQMNSLKTEDTAVYYCVRHGNFGNSYVSWFAYWGQGTLVTVSS VL: QAVVTQEPSLTVSPGGTVTLTCRSSTGAVTTSNYANWVQQKPGQAPRGLIGGTNKRAPWTPARFSGSLLGGKAALTLSGAQPEDEAEYYCALWYSNLWVFGGGTKLTVL",EC50 (read off the curve),[1],~0.6 nM
"aCD3-hVH9/VL3 (antibody, human IgG4, V domains shown, Expressed with an antibody lambda light chain constant region and human IgG4 heavy chain constant regions CH1-CH3; also called humanized anti-CD3 antibody hVH9/VL3) VH: EVQLVESGGGLVQPGGSLRLSCAASGFTFNTYAMNWVRKAPGKGLEWVGRIRSKYNNYATYYADSVKDRFTISRDDSKNSLYLQMNSLKTEDTAVYYCVRHGNFGNSYVSWFAYWGQGTLVTVSS VL: EAVVTQEPSLTVSPGGTVTLTCESSDGAVTTSNYANWVQEKPGQAPRGLIGGTNKEAPWTPARFSGSLLGGKAALTLSGAQPEDEAEYYCALWYSNLWVFGGGTKLTVL",EC50 (read off the curve),[1],~0.6 nM
"aCD3-hVH9/VL5 (antibody, human IgG4, V domains shown, Expressed with an antibody lambda light chain constant region and human IgG4 heavy chain constant regions CH1-CH3; also called humanized anti-CD3 antibody hVH9/VL5) VH: EVQLVESGGGLVQPGGSLRLSCAASGFTFNTYAMNWVRKAPGKGLEWVGRIRSKYNNYATYYADSVKDRFTISRDDSKNSLYLQMNSLKTEDTAVYYCVRHGNFGNSYVSWFAYWGQGTLVTVSS VL: QAVVTQEPSLTVSPGGTVTLTCRSSTGAVTTSNYANWVQEKPGQAPRGLIGGTNKRAPWTPARFSGSLLGGKAALTITGAQAEDEAEYYCVLWYSNLWVFGGGTKLTVL",EC50 (read off the curve),[1],~0.5 nM
"Mab001 (antibody, V domains shown, also called humanized Mab001 antibody; humanized anti-CD20 antibody) VH: QVQLVQSGAEVKKPGSSVKVSCKASGYTFTSYNMHWVRQAPGQGLEWMGAIYPGNGDTSYNQKFQGRVTLTADKSSSTAYMELSSLRSEDTAVYYCARSTYYGGDWYFNVWGQGTLVTVSS VL: EIVLTQSPGTLSLSPGERATLSCRASSSVSYIHWFQQKPGQAPRPLIYATSNLASGIPDRFSGSGSGTDYTLTISRLEPEDFAVYYCQQWTSNPPTFGQGTKLEIK",binding result,human CD20 [2],binds
"Mab002 (antibody, V domains shown, also called humanized Mab002 antibody; humanized anti-CD20 antibody) VH: QVQLVQSGAEVKKPGSSVKVSCKASGYTFTSYNMHWVRQAPGQGLEWMGAIYPGNGDTSYNQKFQGRVTLTADKSSSTAYMELSSLRSEDTAVYYCARSTYYGGDWYFDYWGQGTLVTVSS VL: EIVLTQSPGTLSLSPGERATLSCRASSSVSYIHWFQQKPGQAPRPLIYATSNLASGIPDRFSGSGSGTDYTLTISRLEPEDFAVYYCQQWTSNPPTFGQGTKLEIK",binding result,human CD20 [2],binds
"Mab005 (antibody, V domains shown, also called humanized Mab005 antibody; humanized anti-CD20 antibody) VH: EVQLLESGGGLVQPGGSLRLSCAASGFTFNDYAMHWVRQAPGKGLEWVSTISWNSGSIGYADSVKGRFTISRDNSKNTLYLQMNSLRAEDTAVYYCAKDIQYGNYYYGMDVWGQGTLVTVSS VL: EIVLTQSPGTLSLSPGERATLSCRASQSVSSYLAWYQQKPGQAPRLLIYDASNRATGIPDRFSGSGSGTDFTLTISRLEPEDFAVYYCQQRSNWPITFGQGTKLEIK",EC50 (read off the curve),human CD20 [3],~10 nM
"Mab004 (antibody, V domains shown, also called humanized Mab004 antibody; humanized anti-CD20 antibody) VH: EVQLLESGGGLVQPGGSLRLSCAASGFTFNDYAMHWVRQAPGKGLEWVSTISWNSGSIGYADSVKGRFTISRDNAKKTLYLQMNSLRAEDTAVYYCAKDIQYGNYYYGMDVWGQGTLVTVSS VL: EIVLTQSPGTLSLSPGERATLSCRASQSVSSYLAWYQQKPGQAPRLLIYDASNRATGIPDRFSGSGSGTDFTLTISRLEPEDFAVYYCQQRSNWPITFGQGTKLEIK",EC50 (read off the curve),human CD20 [3],~10 nM
"Mab006 (antibody, V domains shown, also called humanized Mab006 antibody; humanized anti-CD20 antibody) VH: EVQLLESGGGVVQPGGSLRLSCAASGFTFNDYAMHWVRQAPGKGLEWVSTISWNSGSIGYADSVKGRFTISRDNSKNTLYLQMNSLRAEDTAVYYCAKDIQYGNYYYGMDVWGQGTLVTVSS VL: EIVLTQSPGTLSLSPGERATLSCRASQSVSSYLAWYQQKPGQAPRLLIYDASNRATGIPDRFSGSGSGTDFTLTISRLEPEDFAVYYCQQRSNWPITFGQGTKLEIK",EC50 (read off the curve),human CD20 [3],~10 nM
"Mab007 (antibody, V domains shown, also called humanized Mab007 antibody; humanized anti-CD20 antibody) VH: EVQLLESGGGVVQPGGSLRLSCAASGFTFNDYAMHWVRQAPGKGLEWVSTISWNSGSIGYADSVKGRFTISRDNSKNTLYLQMNSLRAEDTAVYYCAKDIQYGNYYYGMDYWGQGTLVTVSS VL: EIVLTQSPGTLSLSPGERATLSCRASQSVSSYLAWYQQKPGQAPRLLIYDASNRATGIPDRFSGSGSGTDFTLTISRLEPEDFAVYYCQQRSNWPITFGQGTKLEIK",EC50 (read off the curve),human CD20 [3],~10 nM
